Positions count from the first letter of the chain named. Names and notes keep the numbering of the source.
T1: Recombinant mouse IL-1RAP Fc fusion protein (Sino Biologicals, catalog no. 52657-M02H) (mouse, UniProt Q61730 21-350)
T1 construct: Bought; not shown: Fc part of the bought fusion protein
T1 sequence: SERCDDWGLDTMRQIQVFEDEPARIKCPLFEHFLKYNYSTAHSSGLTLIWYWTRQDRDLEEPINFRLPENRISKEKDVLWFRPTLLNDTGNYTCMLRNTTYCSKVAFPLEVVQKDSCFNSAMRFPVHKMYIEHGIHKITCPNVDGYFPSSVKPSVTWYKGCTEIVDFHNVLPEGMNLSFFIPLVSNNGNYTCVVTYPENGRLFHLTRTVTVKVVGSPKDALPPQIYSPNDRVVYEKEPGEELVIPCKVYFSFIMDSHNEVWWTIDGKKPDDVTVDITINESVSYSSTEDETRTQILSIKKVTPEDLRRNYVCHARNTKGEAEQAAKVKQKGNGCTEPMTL

T2: Recombinant cynomolgus monkey IL-1RAP-ECD(S21-E359)-avi-his protein (cynomolgus monkey, UniProt P59822 21-359 (rhesus entry))
T2 construct: also called cyno IL-1RAP-ECD-Avi-His; recombinant cynomolgus monkey IL-1RAP-avi-his protein
T2 sequence: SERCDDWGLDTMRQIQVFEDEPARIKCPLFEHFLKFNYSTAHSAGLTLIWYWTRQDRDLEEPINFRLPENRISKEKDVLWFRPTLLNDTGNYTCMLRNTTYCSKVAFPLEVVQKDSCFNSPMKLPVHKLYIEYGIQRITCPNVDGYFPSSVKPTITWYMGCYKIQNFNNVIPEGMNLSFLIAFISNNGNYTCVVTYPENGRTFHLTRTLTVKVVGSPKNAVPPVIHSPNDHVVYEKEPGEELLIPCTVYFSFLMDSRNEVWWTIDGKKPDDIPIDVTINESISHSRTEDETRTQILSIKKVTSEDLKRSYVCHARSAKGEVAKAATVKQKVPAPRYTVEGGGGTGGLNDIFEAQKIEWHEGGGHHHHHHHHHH

T3: Recombinant human IL-1RAP-ECD(S21-E359)-avi-his protein (human, UniProt Q9NPH3 21-359)
T3 construct: Biotinylated where loaded on streptavidin; also called human IL-1RAP-ECD-Avi-His; recombinant human IL-1RAP-avi-his protein
T3 sequence: T2 sequence with F183L, P273T, T326K

T4: gg-hs-hs IL-1RAP
T4 construct: chicken/human IL-1RAP chimera; also called IL-1RAP-ECD(ggD1(S139-P246)-hsD2(V132-V233)-hsD3(V234-E359))-Avi-His; gg-hs-hs-IL-1RAP-ECD-avi-his
T4 single chain: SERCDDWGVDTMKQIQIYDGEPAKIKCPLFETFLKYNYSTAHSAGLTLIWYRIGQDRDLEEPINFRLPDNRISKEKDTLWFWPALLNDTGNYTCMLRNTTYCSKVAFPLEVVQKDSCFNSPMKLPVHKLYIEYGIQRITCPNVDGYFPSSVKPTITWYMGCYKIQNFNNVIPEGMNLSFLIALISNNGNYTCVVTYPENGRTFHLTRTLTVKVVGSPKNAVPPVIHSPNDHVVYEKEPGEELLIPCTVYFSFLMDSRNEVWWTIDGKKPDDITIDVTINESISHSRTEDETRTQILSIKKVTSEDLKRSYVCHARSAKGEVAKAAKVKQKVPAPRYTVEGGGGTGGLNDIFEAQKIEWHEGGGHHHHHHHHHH

B1: Anti-IL-1RAP-C3-MP01-A2 Fab (Fab, V domains shown)
VH: EVQLLESGGGLVQPGGSLRLSCAASGFTFAEYAMNWVRQAPGKGLEWVSAISYDGEGTLYADSVKGRFTISRDNSKNTLYLQMNSLRAEDTAVYYCARFRYYTAFDYWGQGTLVTVSS
VL: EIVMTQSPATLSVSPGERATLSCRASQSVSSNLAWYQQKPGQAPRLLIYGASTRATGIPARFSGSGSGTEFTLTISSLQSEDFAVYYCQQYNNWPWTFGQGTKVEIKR
B2: Anti-IL-1RAP-C3-MP01-A3 Fab (Fab, V domains shown)
VH: B1 VH with T28I, A30S, E31H, A33G, N35S
VL: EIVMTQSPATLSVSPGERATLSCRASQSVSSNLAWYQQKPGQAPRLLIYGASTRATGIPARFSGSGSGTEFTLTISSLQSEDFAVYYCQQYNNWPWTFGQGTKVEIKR
notes: also called Fab clone anti-IL-1RAP-C3-A3
B3: Anti-IL-1RAP-C3-MP01-D2 Fab (Fab, V domains shown)
VH: B1 VH with A30S, E31Q, Y32F, A33G, N35T
VL: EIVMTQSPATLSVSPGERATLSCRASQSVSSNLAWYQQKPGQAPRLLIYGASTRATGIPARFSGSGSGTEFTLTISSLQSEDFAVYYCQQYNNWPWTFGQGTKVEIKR
B4: Anti-IL-1RAP-C3-MP01-G10 Fab (Fab, V domains shown)
VH: B1 VH with A30S, E31H, A33G, N35S
VL: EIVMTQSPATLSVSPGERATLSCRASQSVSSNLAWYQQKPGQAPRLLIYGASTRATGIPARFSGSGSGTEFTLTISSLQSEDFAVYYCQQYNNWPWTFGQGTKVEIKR
B5: Anti-IL-1RAP-C3-MP02-F6 Fab (Fab, V domains shown)
VH: B1 VH with A30P, E31D, A33P, M34L, N35G
VL: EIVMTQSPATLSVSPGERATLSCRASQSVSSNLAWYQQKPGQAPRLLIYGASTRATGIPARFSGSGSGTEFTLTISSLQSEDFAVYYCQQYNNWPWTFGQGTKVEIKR
B6: Anti-IL-1RAP-C3-MP01-F5 Fab (Fab, V domains shown)
VH: B1 VH with T28P, F29L, A30S, E31N, A33G, N35S
VL: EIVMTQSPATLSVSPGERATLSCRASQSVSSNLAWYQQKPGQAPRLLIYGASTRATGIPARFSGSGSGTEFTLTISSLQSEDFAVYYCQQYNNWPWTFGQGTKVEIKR
B7: Anti-IL-1RAP-C3-MP01-B7 Fab (Fab, V domains shown)
VH: B1 VH with F29L, A30S, E31G, Y32F, A33S, N35S
VL: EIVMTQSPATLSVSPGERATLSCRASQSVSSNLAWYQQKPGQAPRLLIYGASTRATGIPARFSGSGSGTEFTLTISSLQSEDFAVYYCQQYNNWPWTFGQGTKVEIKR
B8: Anti-IL-1RAP-C3-MP02-G2 Fab (Fab, V domains shown)
VH: B1 VH with F29Y, A30D, E31V, Y32A, A33P, N35G
VL: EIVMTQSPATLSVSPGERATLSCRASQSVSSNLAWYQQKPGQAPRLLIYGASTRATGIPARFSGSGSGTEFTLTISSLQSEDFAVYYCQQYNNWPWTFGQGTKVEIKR
B9: Anti-IL-1RAP-C3-MP01-B5 Fab (Fab, V domains shown)
VH: B1 VH with T28I, A30S, E31T, A33G, N35G
VL: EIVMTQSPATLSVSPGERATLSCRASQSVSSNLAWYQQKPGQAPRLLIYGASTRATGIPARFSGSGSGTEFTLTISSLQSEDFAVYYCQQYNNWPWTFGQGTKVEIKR
B10: Anti-IL-1RAP-C3-MP02-B8 Fab (Fab, V domains shown)
VH: B1 VH with A30E, E31H, Y32S, A33S, M34A, N35G
VL: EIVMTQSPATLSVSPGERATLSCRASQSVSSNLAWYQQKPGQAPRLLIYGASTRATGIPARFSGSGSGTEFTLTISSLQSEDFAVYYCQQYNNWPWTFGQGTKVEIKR
B11: Anti-IL-1RAP-C8-recC IgG1 LALA (antibody, V domains shown)
VH: QVQLVQSGAEVKKPGSSVKVSCKASGSPAEPYAIQWVRQAPGQGLEWMGYIIPSLGGYDYAQKFQGRVTITADESTSTAYMELSSLRSEDTAVYYCARGQTLYDSGRQFDIWGQGTLVTVSS
VL: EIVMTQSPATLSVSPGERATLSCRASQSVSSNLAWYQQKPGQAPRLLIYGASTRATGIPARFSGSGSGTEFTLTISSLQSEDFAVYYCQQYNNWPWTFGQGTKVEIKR
notes: Human IgG1 with L234A/L235A (EU); whether it is the full heavy chain or only VH is not clear; also called ISB 880-C8-recC
B12: Anti-IL-1RAP-C8-RecC-ET-IgG1LALA (antibody, V domains shown)
VH: B11 VH with D104E, S105T
VL: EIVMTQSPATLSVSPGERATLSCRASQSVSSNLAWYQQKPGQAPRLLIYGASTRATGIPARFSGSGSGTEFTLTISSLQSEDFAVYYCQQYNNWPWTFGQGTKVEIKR
notes: Human IgG1 LALA; also called ISB 880-C8-recC-ET
B13: Anti-IL-1RAP-C8-RecC-DA-IgG1LALA (antibody, V domains shown)
VH: B11 VH with S105A
VL: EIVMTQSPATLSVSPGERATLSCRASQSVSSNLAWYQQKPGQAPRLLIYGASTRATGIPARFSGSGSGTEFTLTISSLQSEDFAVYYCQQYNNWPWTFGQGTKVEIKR
notes: Human IgG1 LALA; D100/S100a (Kabat) of RecC replaced by DA; also called ISB 880-C8-recC-DA
B14: Anti-IL-1RAP-C8-RecC-AA-IgG1LALA (antibody, V domains shown)
VH: B11 VH with D104A, S105A
VL: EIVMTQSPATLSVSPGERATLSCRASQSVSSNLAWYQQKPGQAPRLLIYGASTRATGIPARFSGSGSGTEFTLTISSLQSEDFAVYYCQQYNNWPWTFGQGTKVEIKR
notes: Human IgG1 LALA; also called ISB 880-C8-recC-AA
B15: Anti-IL-1RAP-C8-RecC-AS-IgG1LALA (antibody, V domains shown)
VH: B11 VH with D104A
VL: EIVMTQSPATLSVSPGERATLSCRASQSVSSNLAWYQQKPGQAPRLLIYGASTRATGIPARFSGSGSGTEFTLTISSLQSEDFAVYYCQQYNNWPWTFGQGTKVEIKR
notes: Human IgG1 LALA; D100/S100a (Kabat) of RecC replaced by AS; also called ISB 880-C8-recC-AS
B16: anti-IL-1RAP-C8 IgG1 LALA (antibody, V domains shown)
VH: B11 VH with S27G, P28Q, A29F, E30S, P31E, S54L, L55H, G57Q, Y58V
VL: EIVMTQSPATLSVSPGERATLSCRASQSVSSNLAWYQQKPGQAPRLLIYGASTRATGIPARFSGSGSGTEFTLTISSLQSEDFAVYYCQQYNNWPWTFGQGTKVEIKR
notes: Human IgG1 with L234A/L235A (EU)

target: T1, Recombinant mouse IL-1RAP Fc fusion …; assay: SPR, mouse IL-1RAP-Fc captured, Fab as analyte (0.04 to 5 nM)
Method: Affinities of the Fab fragments to mouse IL-1RAP were measured as described in Example 1, with the following modifications. Measurements were performed on Series S CM5 sensor chips (BIACORE™ T200, BIACORE™, GE […]®, catalog no. BR100530) coupled with anti-human IgG Fc (BIACORE™, GE […]®, catalog no. BR100839) using a commercial amine coupling kit (BIACORE™, GE […]®, catalog no. BR100050). SPR measurements were performed with commercially available recombinant mouse IL-1RAP Fc fusion protein (Sino Biologicals, catalog no. 52657-M02H). The affinities to mouse IL-1RAP were assessed by immobilizing mouse IL-1RAP-Fc and using Fab fragments as analyte. Around 60 RUs of mouse IL-1RAP Fc fusion protein were captured on fc2 of a Series S CM5 sensor chip coupled with anti-human IgG Fc. Fab fragments were injected in single cycle kinetic at different concentrations ranging from 0.04 to 5 nM, in HBS-EP+ buffer (BIACORE™, GE […]®, catalog no. BR100669) at a flow rate of 30 μl/min for 3 min on fc1 and fc2 (fc1 being used as reference). Dissociation was monitored for 10 min.

Row | Kd [nM] | Binder
1 | 0.68 | B1
2 | 0.14 | B2
3 | 0.22 | B3
4 | 0.21 | B4
5 | 0.26 | B5
6 | 0.28 | B6
7 | 0.17 | B7
8 | 0.32 | B8
9 | 0.21 | B9
10 | 0.49 | B10

target: T2, Recombinant cynomolgus monkey …; assay: SPR, IgG1 LALA captured by anti-human Fc, cyno IL-1RAP-avi-his as analyte, 1:1 fit
Method: (§1) Surface plasmon resonance (SPR) was used to measure the binding affinities of the human IgG1 LALA molecules for human and cynomolgus monkey IL-1RAP. Affinities were measured on a BIACORE™ T200 instrument (BIACORE™, GE […]®) at 25° C. and analyzed with the BIACORE™ T200 Evaluation Software (v3.1). Measurements were performed on Series S CM5 sensor chips (BIACORE™ T200, BIACORE™, GE […]®, catalog no. BR100530) coupled with anti-human IgG Fc (BIACORE™, GE […]®, catalog no. BR100839) using a commercial amine coupling kit (BIACORE™, GE […]®, catalog no. BR100050). SPR measurements were performed with recombinant human IL-1RAP-avi-his protein produced in house (SEQ ID NO. 1) or recombinant cynomolgus monkey IL-1RAP-avi-his protein produced in house (SEQ ID NO. 2). The affinities to human and cynomolgus monkey IL-1RAP were assessed by immobilizing anti-IL-1RAP IgG1 LALA molecules and using IL-1RAP proteins as analyte. Around 150 RU of human IgG1 LALA were captured on fc2 of a Series S CM5 sensor chip coupled with anti-human IgG Fc. Recombinant human IL-1RAP-avi-his protein or recombinant cynomolgus monkey IL-1RAP-avi-his protein was injected in multi cycle kinetic at different concentrations ranging from 0.14 to 100 nM, in HBS-EP+ buffer (BIACORE™, GE […]®, catalog no. BR100669) at a flow rate of 30 μl/min for 3 min on fc1 and fc2 (fc1 being used as reference). Dissociation was monitored for 12 min. After each cycle, the surface was regenerated with 60 μl of regeneration solution provided with anti-human IgG Fc capture kit (BIACORE™, GE […]®, catalog no. BR100839). Experimental data were processed using the 1:1 Langmuir kinetic fitting model. Measurements included zero-concentration samples for referencing. Chi², U- and residual values were used to evaluate the quality of a fit between the experimental data and individual binding models.

Row | Kd [nM] | koff [s⁻¹] | kon [M⁻¹ s⁻¹] | Binder
11 | 0.276 | 0.000236 | 854000 | B11
12 | 0.336 | 0.000308 | 916000 | B12
13 | 0.145 | 0.00019 | 1.31e+06 | B13
14 | 0.24 | 0.000187 | 777000 | B14
15 | 0.254 | 0.00016 | 628000 | B15

target: T3, Recombinant human …; assay: SPR, IgG1 LALA captured by anti-human Fc, human IL-1RAP-avi-his as analyte, 1:1 fit
Method: as §1

Row | Kd [nM] | koff [s⁻¹] | kon [M⁻¹ s⁻¹] | Binder
16 | 0.237 | 0.000199 | 840000 | B11
17 | 0.278 | 0.000253 | 916000 | B12
18 | 0.14 | 0.000162 | 1.16e+06 | B13
19 | 0.267 | 0.000169 | 634000 | B14
20 | 0.287 | 0.000161 | 561000 | B15

Target: T4, gg-hs-hs IL-1RAP
Assay: SPR, IgG1 LALA captured on anti-human IgG Fc CM5 chip, chimera injected at 50 nM
Method: Human-chicken IL-1RAP chimeras were injected over immobilized anti-IL-1RAP IgG1 LALA at 50 nM in HBS-EP+ buffer followed by a dissociation in HBS-EP+ buffer. “hs” stands for a human domain and “gg” stands for a chicken domain. Human-chicken chimeras are then described by their respective human or chicken domains in successive order, e.g. hs-gg-gg IL-1RAP stands for IL-1RAP with human domain 1, chicken domain 2 and chicken domain 3. Plots show data expressed as number of resonance units (abbreviated RU; Y axis) vs. time (X axis).
Domain of IL-1RAP targeted by IgG1 LALA clones was identified by SPR binding assay. Around 150 RU of IgG1 LALA was immobilized on the fc2 of a Series S CM5 sensor chip previously coated with anti-human IgG Fc (BIACORE™, GE […]®, catalog no. BR100839) using a commercial amine coupling kit (BIACORE™, GE […]®, catalog no. BR100050). Human IL-1RAP-avi-his, chicken IL-1RAP-avi-his, chimeric protein comprising chicken domain 1 of IL-RAP fused to human domain 2 and 3 of IL-1RAP (gg-hs-hs-IL-1RAP-ECD-avi-his) and chimeric protein comprising chicken domain 1 and 2 of IL-1RAP fused to human domain 3 of IL-1RAP (gg-gg-hs-IL-1RAP-avi-his) were injected individually at 50 nM in HBS-EP+ for 3 min over fc1 and fc2 (fc1 being used as reference), followed by dissociation in HBS-EP+ buffer for 5 min. […]

Row | binding result | Binder
21 | binds | B16
